T1: mouse PD-1 (Sino Biological Inc., Beijing, China) (mouse, UniProt Q02242 25-167, limits assumed)
T1 sequence (looked up): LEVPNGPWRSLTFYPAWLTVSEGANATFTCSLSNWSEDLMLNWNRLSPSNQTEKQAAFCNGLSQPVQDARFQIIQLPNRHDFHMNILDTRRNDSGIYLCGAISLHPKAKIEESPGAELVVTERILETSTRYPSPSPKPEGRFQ

T2: mouse PD-1/His (Sino Biological Inc.) (mouse, UniProt Q02242 25-167)
T2 construct: Bought protein; not shown: His tag
T2 sequence (looked up): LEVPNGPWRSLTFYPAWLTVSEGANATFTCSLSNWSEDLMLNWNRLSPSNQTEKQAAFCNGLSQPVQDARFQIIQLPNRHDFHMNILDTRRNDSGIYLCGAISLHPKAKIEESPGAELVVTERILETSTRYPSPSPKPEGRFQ

T3: human ICOS/Fc (Sino Biological Inc.) (human, UniProt Q9Y6W8 21-141, limits assumed)
T3 construct: Bought protein; not shown: Fc
T3 sequence (looked up): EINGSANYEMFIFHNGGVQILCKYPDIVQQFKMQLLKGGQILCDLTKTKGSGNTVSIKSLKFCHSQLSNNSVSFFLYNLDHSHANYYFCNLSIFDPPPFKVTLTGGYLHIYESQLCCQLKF


Key:
[1] = molecular target: T4, Human PD-1 (Sino Biological Inc., Beijing, China) (human, UniProt Q15116 25-167); test: competitive ELISA, human PD-1 coated at 0.1 µg/mL, competitor Opdivo-HRP
T4 construct: also called hPD-1
T4 sequence (Q15116 25-167 limits assumed): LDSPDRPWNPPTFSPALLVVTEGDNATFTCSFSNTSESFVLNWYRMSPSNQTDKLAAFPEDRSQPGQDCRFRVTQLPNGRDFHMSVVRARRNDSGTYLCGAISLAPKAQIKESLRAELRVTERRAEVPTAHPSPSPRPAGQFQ
Description: (§1) Human PD-1 (Sino Biological Inc., Beijing, China) was diluted to 0.1 μg/mL with PBS buffer and added to the 96-well plate at a volume of 100 μL/well and allowed to stand overnight at room temperature. The coating solution was removed, 200 μL of PBST/1% no-fat milk was added to each well and incubated at room temperature for 1 h for blocking. The blocking solution was removed and the plate was washed 3 times with PBST.

[2] = molecular target: T1, mouse PD-1 (Sino Biological Inc., …); test: indirect ELISA, mouse PD-1 coated, HRP goat anti-human IgG
Excerpt: (§2) The HRP-labeled goat anti-human IgG antibody (The Jackson Laboratory) was used as the secondary antibody, and the detailed assay procedure was as described in Example 2.

[3] = molecular target: T4, Human PD-1 (Sino Biological Inc., …); test: competitive ELISA, human PD-1 coated at 0.1 µg/mL, competitor Keytruda-HRP
Description: as §1

[4] = molecular target: T4, Human PD-1 (Sino Biological Inc., …); test: indirect ELISA, human PD-1 coated at 0.1 µg/mL, HRP goat anti-human IgG
Excerpt: as §2

[5] = molecular target: T5, human PD-1/His (Sino Biological Inc.) (human, UniProt Q15116 25-170); test: affinity and kinetic constants; method not restated, taken as BLI of Example 3.4
T5 construct: extracellular domain; Bought protein; also called extracellular domain fragment of PD-1 protein containing His tag; not shown: His tag
T5 sequence (Q15116 25-170): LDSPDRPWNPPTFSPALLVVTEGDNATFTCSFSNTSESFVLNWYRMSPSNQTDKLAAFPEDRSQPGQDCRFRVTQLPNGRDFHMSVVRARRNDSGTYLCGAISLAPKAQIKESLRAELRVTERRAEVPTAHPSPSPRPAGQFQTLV

[6] = molecular target: T6, PD-1 expressed on the surface of activated human T cells (human, UniProt Q15116 25-288); test: flow cytometry on activated human T cells, FITC goat anti-human IgG
T6 construct: whole, on cells
T6 sequence (Q15116 25-288): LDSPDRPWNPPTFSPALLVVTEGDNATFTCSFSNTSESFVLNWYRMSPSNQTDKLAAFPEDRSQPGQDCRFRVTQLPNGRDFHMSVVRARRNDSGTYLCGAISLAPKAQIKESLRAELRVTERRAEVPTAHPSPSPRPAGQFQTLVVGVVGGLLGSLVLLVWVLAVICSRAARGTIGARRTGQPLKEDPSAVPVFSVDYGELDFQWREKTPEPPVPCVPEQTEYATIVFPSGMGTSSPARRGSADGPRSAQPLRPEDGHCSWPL
Description: Fresh mononuclear cells were obtained from human peripheral blood by density gradient centrifugation (Lymphoprep™, human lymphocyte separation solution, […]), and high purity T lymphocytes were obtained using T cell isolation reagents ([…]). The T lymphocytes were stimulated with 5 μg/mL of the anti-CD3 antibody for 48 h, and cultured for 7 days after addition of 250 IU/mL of human IL-2. A large number of activated T lymphocytes were then obtained. […] The FITC signals were detected by flow cytometry.

[7] = molecular target: T5, human PD-1/His (Sino Biological Inc.); test: competitive ELISA: PD-1/His coated at 2 µg/mL, blocks biotin-labeled PD-L1/Fc
Description: The extracellular domain fragment of PD-1 protein containing His tag was coated onto the 96-well ELISA plate.
PD-1/His was diluted to 2 μg/mL with PBS buffer, pH 7.2, and added to the 96 well ELISA plate at 100 μL per well and incubated with shaking at room temperature for 1 h. The PBS buffer was aspirated from the 96-well ELISA plate. 200 μL of PBST(PBS containing 0.05% Tween 20, pH 7.4)/1% no-fat milk was added to each well and incubated at room temperature for 1 h for blocking. The plate was washed 3 times with PBST. 50 μL of the anti-PD-1 antibody to be tested was added to each well, which was diluted with the blocking solution to an appropriate concentration. […] Incubating at room temperature for 1 h. The plate was washed 3 times with PBST. 100 μL of SA-Avidin-HRP (HRP-labeled streptavidin) diluted at 1:250 ratio with the blocking solution was added to each well, and incubated at room temperature for 1 h. Washing the plate 3 times with PBST. 100 μL of the TMB substrate solution was added to each well and incubated at room temperature for 5-10 min. Adding 50 μL of 0.2 M sulfuric acid to each well to terminate the reaction. The absorbance values were read at 450 nm in a microplate reader.

[8] = molecular target: T7, PD-1 overexpressed on the surface of CHO cells (Homo sapiens (Human), UniProt Q15116 25-288); test: flow cytometry on PD-1-overexpressing CHO cells, FITC goat anti-human IgG
T7 construct: also called PD-1-overexpressing CHO cells
T7 sequence (Q15116 25-288 limits assumed): as the sequence (Q15116 25-288) above
Excerpt: FACS (fluorescence activated cell sorting) is a test used for detection of the binding between proteins and cells. The test was used to detect the binding activity of the humanized anti-PD-1 antibodies of the present invention to native PD-1 expressed on the cell surface. The cells used in the test were PD-1-overexpressing CHO cells.

[9] = molecular target: T8, cynomolgus monkey PD-1/Fc (Sino Biological Inc.) (cynomolgus monkey, UniProt B0LAJ3 25-170); test: indirect ELISA, cynomolgus monkey PD-1/Fc coated at 0.1 µg/mL, HRP goat anti-mouse IgG
T8 construct: Bought protein
T8 sequence (B0LAJ3 entry or part of it limits assumed): as the sequence (Q15116 25-170) above, with D2E, P10A, V19L, T35A, Q75R, T144A counted along it
Description: (§3) Human PD-1/His, human ICOS/Fc, human CTLA4/His, human CD28/Fc, cynomolgus monkey PD-1/Fc, and mouse PD-1/His (all from Sino Biological Inc., Beijing, China) were diluted with PBS buffer to 0.1 μg/mL, and added to the 96-well plate at a volume of 100 μL/well and placed at 16° C. for 16 to 20 h. The PBS buffer was aspirated from the 96-well plate, and the plate was washed once with PBST (PBS containing 0.05% Tween 20, pH 7.4). 200 μL of PBST/1% no-fat milk was added to each well and incubated at room temperature for 1 h for blocking. The blocking solution was removed and the plate was washed 3 times with PBST. 100 μL of the anti-PD-1 antibody to be tested was added to each well, and incubated at room temperature for 1.5 h. The reaction solution was removed and the plate was washed 3 times with PBST. 50 μL of the HRP-labeled goat anti-mouse IgG secondary antibody (The Jackson Laboratory) diluted (dilution ratio 1:4000) was added to each well. Incubated at room temperature for 1 h. The plate was washed 3 times with PBST. 100 μL of the TMB was added to each well and incubated at room temperature for 5-10 min 50 μL of 0.2 M sulfuric acid was added to each well to terminate the reaction. Absorbance values were read at dual wavelengths of 450/620 nm in a microplate reader.

[10] = molecular target: T9, human CTLA4/His (Sino Biological Inc.) (human, UniProt P16410 36-162, limits assumed); test: indirect ELISA, human CTLA4/His coated at 0.1 µg/mL, HRP goat anti-mouse IgG
T9 construct: Bought protein; not shown: His tag
T9 sequence (P16410 36-162 limits assumed): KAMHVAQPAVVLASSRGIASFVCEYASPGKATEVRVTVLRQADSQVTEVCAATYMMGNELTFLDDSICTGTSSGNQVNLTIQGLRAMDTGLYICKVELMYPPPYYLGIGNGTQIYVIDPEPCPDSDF
Description: as §3

[11] = molecular target: T2, mouse PD-1/His (Sino Biological Inc.); test: indirect ELISA, mouse PD-1/His coated at 0.1 µg/mL, HRP goat anti-mouse IgG
Description: as §3

[12] = molecular target: T3, human ICOS/Fc (Sino Biological Inc.); test: indirect ELISA, human ICOS/Fc coated at 0.1 µg/mL, HRP goat anti-mouse IgG
Description: as §3

Binder	IC50 (read off the curve) [1] [µg/mL]	binding result [2]	IC50 (read off the curve) [3] [µg/mL]	EC50 (read off the curve) [4] [µg/mL]	Kd [5] [pM]	koff [5] [s⁻¹]	kon [5] [M⁻¹ s⁻¹]	EC50 (read off the curve) [6] [pM]	IC50 [7] [pM]	EC50 (read off the curve) [8] [pM]	binding result [9]	binding result [10]	binding result [11]	binding result [12]
murine monoclonal antibody AB12N1 (antibody, mouse IgG1, V domains shown, subclass identified as mouse IgG1 (Kappa), purified from hybridoma supernatant; also called antibody of hybridoma clone #22) VH: QVQLVESGGGVVQPGRSLRLDCKASGITFSNSGMHWVRQAPGKGLEWVAVIWYDGSKRYYADSVKGRFTISRDNSKNTLFLQMNSLRAEDTAVYYCATNDDYWGQGTLVTV VL: EIVLTQSPATLSLSPGERATLSCRASQSVSSYLAWYQQKPGQAPRLLIYDASNRATGIPARFSGSGSGTDFTLTISSLEPEDFAVYYCQQSSNWPRTFGQGTKVEIK	–	–	–	–	–	–	–	–	–	–	no binding (tested: 10 µg/mL)	no binding (tested: 10 µg/mL)	no binding (tested: 10 µg/mL)	no binding (tested: 10 µg/mL)
humanized antibody AB12N3 (antibody, V domains shown) VH: QVQLVESGGGVVQPGRSLRLSCAASGITFSNSGMHWVRQAPGKGLEWVAVWYDGSKRYYADSVKGRFTISRDNSKNTLYLQMNSLRAEDTAVYYCATNDDYWGQGTLVTV VL: EIVLTQSPATLSLSPGERATLSCRASQSVSSYLAWYQQKPGQAPRLLIYDASNRATGIPARFSGSGSGTDFTLTISSLEPEDFAVYYCQQSSNWPRTFGQGTKVEIK	–	–	–	–	365	2.28e-05	62400	–	–	–	–	–	–	–
humanized antibody AB12N5 (antibody, V domains shown) VH: QVQLVESGGGVVQPGRSLRLSCAASGITFSNSGMHWVRQAPGKGLEWVAVWYDGSKRYYADSVKGRFTISRDNSKNTLFLQMNSLRAEDTAVYYCATNDDYWGQGTLVTV VL: EIVLTQSPATLSLSPGERATLSCRASQSVSSYLAWYQQKPGQAPRLLIYDASNRATGIPARFSGSGSGTDFTLTISSLEPEDFAVYYCQQSSNWPRTFGQGTKVEIK	–	–	–	–	414	2.56e-05	61900	–	–	–	–	–	–	–

Results, then the binder that gave them:

IC50 (read off the curve) [1] [µg/mL]	binding result [2]	IC50 (read off the curve) [3] [µg/mL]	EC50 (read off the curve) [4] [µg/mL]	Kd [5] [pM]	koff [5] [s⁻¹]	kon [5] [M⁻¹ s⁻¹]	EC50 (read off the curve) [6] [pM]	IC50 [7] [pM]	EC50 (read off the curve) [8] [pM]	binding result [9]	binding result [10]	binding result [11]	binding result [12]	Binder
~0.08	no binding (tested: 10 µg/ml)	~0.07	~0.003	< 1	< 1e-07	198000	–	–	–	–	–	–	–	mouse-human chimeric antibody AB12M2 (antibody, V domains shown) VH: EVKLVESGGGLVKPGGSLKLSCAASGFTFSSYGMSWVRQTPEKRLEWVATISGGGRDTYYPDSVKGRFTISRDNAKNNLYLQMSSLRSEDTALYYCARQKDTSWFVHWGQGTLVTVSA VL: not shown
~0.1	no binding (tested: 10 µg/ml)	~0.09	~0.003	< 1	< 1e-07	226000	~800	114	~1000	–	–	–	–	humanized antibody AB12M3 (antibody, V domains shown, the description speaks of human IgG4 or IgG1 and human kappa only as embodiments) VH: EVQLVESGGGLVQPGGSLRLSCAASGFTFSSYGMSWVRQAPGKGLEWVATISGGGRDTYYPDSVKGRFTISRDNAKNNLYLQMNSLRAEDTALYYCARQKDTSWFVHWGQGTLVTVSS VL: EIVLTQSPATLSLSPGERATLSCRASESVDDYGISFMNWFQQKPGQAPKLLIYVASNQGSGVPARFSGSGSGTDFSLTISSLEPDDTAMYFCQQSKEVPWTFGGGTKVEIK
~0.1	no binding (tested: 10 µg/ml)	~0.09	~0.003	< 1	< 1e-07	213000	–	96	~1000	–	–	–	–	humanized antibody AB12M4 (antibody, V domains shown) VH: EVKLVESGGGLVKPGGSLRLSCAASGFTFSSYGMSWVRQTPEKRLEWVATISGGGRDTYYPDSVKGRFTISRDNAKNNLYLQMSSLRSEDTALYYCARQKDTSWFVHWGQGTLVTVSA VL: not shown
–	–	–	–	378	2.41e-05	63700	–	–	–	–	–	–	–	humanized antibody AB12N4 (antibody, V domains shown) VH: QVQLVESGGGVVQPGRSLRLSCAASGITFSNSGMHWVRQAPGKGLEWVAVIWYDGSKRYYADSVKGRFTISRDNSKNTLYLQMNSLRAEDTAVYYCATNDDYWGQGTLVTV VL: EIVLTQSPATLSLSPGERATLSCRASQSVSSYLAWYQQKPGQAPRLLIYDASNRATGIPARFSGSGSGTDFTLTISSLEPEDFAVYYCQQSSNWPRTFGQGTKVEIK
